{"source": "patent US20240254209A1", "about": "(published 2024)", "key": {"[1]": {"molecular_target": "T1, peanut allergen Ara h 6 (peanut (Arachis hypogaea), UniProt Q647G9 22-145)", "T1 construct": "also called recombinant Ara h 6", "T1 sequence (looked up)": "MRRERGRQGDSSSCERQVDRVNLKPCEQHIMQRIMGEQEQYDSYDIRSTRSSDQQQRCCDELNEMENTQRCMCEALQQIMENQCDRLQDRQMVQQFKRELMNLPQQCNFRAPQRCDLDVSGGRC", "experiment": "Phadia ImmunoCAP and/or ELISA and Western blot"}, "[2]": {"molecular_target": "T2, peanut allergen Ara h 3 (peanut (Arachis hypogaea))", "T2 construct": "also called F424", "experiment": "ImmunoCAP, hybridoma supernatant", "method": "(§1) Verification and validation of IgE mAbs peanut allergen specificity. Following the unbiased generation of IgE secreting human hybridomas from peanut allergic subject PBMCs, peanut protein binding and peanut allergen protein specificity was determined. Hybridoma culture supernatant was initially used for this validation. […] Using the available ImmunoCAP components (purified allergen proteins: Ara h 1, F422; Ara h 2, F423; Ara h 3, F424; Ara h 8 F352; Ara h 9 F427), the exact allergen specificity was determined for those which bound Ara h 1, 2, and 3.\n(§2) Hybridoma cell culture supernatant was used for initial identification of allergen specificity using ImmunoCAP analysis. Peanut reactivity was first determined using peanut ImmunoCAP. Component analysis identified IgE antibodies specific for Ara h 1, 2, and 3. All antibodies not identified in this table were determined to bind Ara h 6."}, "[3]": {"molecular_target": "T3, peanut allergen Ara h 8 (peanut (Arachis hypogaea))", "T3 construct": "ImmunoCAP component F352; also called F352", "experiment": "ImmunoCAP, hybridoma supernatant", "method": "as §1, §2"}, "[4]": {"molecular_target": "T4, peanut allergen Ara h 9 (peanut (Arachis hypogaea))", "T4 construct": "ImmunoCAP component F427; also called F427", "experiment": "ImmunoCAP, hybridoma supernatant", "method": "as §1, §2"}, "[5]": {"molecular_target": "T1, peanut allergen Ara h 6", "experiment": "told in the text"}, "[6]": {"molecular_target": "T5, peanut allergen Ara h 1 (peanut (Arachis hypogaea), UniProt P43238 26-626)", "T5 construct": "also called F422", "T5 sequence (looked up)": "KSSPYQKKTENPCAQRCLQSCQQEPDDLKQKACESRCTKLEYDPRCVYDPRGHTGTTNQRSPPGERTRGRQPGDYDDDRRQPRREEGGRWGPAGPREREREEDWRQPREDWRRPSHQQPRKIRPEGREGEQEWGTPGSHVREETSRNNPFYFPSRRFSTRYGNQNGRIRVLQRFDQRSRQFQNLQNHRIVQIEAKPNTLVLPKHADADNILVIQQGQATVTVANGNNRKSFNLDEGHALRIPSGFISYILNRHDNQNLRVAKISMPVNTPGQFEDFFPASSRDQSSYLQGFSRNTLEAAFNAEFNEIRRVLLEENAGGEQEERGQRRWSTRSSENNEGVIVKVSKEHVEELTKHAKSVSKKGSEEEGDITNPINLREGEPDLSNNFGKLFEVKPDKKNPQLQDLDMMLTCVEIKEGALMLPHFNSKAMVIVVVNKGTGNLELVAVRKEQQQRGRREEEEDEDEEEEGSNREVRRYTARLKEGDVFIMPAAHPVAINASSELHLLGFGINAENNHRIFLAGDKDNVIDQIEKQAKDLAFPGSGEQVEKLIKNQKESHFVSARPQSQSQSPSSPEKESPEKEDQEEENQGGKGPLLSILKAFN", "experiment": "allergen specificity as listed in Table D"}}, "data": [{"binder": "human IgE mAb 1A8 (antibody, V domains shown, human IgE from hybridoma) VH: QLQLQESGPGLVKPSETLSLTCSVSDDSISTPSYFWTWIRQPPGKGLEWIASIYYTGTTYYNPSLKSRVTLSVDTPKRQFFLRLSSVTAADTAVYYCARYLDYVWLRAFDVWGQGAMVTVSS VL: EIVLTQSPATLSLSPGERATLSCRASPSVGRFLAWYQQKPGQAPRLLIYDASQRATDIPARFSASGSGTDFTLTIDSLEPEDFAIYYCQHRSNWPVTFGGGTRVEIK", "values": [{"measurement": "binding result", "setting": "[1]", "result": "binds"}]}, {"binder": "human IgE mAb 7B6 (antibody, V domains shown, human IgE from hybridoma) VH: QVQLQQWGAGLLKPSETLSLTCAVYGGSFNGYYWSWIRQPPGKGLEWIGEIDHSGSTNYNSSLKSRVTISVDTSKNQFSLKLSSVTAADTAVYYCARRRIGSLLKYFQDWGQGTLVTVSS VL: SYELTQPPSVSVSPGQTASITCSGDKLGDSYVCWYQLKPGQSPVLVIYQDTKRPSGIPERFSGSNSGNTATLTISETQAMDEADYYCQAWDTTTDWVFGGGTKLTVL", "values": [{"measurement": "ImmunoCAP kUA/L", "setting": "[2]", "result": 0.32, "unit": "kUA/L"}, {"measurement": "ImmunoCAP kUA/L", "setting": "[3]", "result": 0.29, "unit": "kUA/L"}, {"measurement": "ImmunoCAP kUA/L", "setting": "[4]", "result": 0.21, "unit": "kUA/L"}]}, {"binder": "human IgE mAb 3B7 (antibody, V domains shown, human IgE from hybridoma) VH: QVQLVQSGSELKKPGASMKVSCKASGYTFTNYAMNWVRQAPGQGLEWMGWINTNTGKPTYAQGFTGRFVFSLDTSVSMAYLQISSLEAGDTAVYFCARGESLAALGSFAYWGQGTLVTVSS VL: DIQMTQSPSSLSASVGDRVTITCRASQSINSYLAWYQQKPGKAPNLLIYAASNLQSGVPSRFSGSGSGTDFTLTISSLQPEDFATYYCQQSSSTFWTFGQGTKVEIK", "values": [{"measurement": "ImmunoCAP kUA/L", "setting": "[2]", "result": 1.15, "unit": "kUA/L"}, {"measurement": "ImmunoCAP kUA/L", "setting": "[3]", "result": 0.42, "unit": "kUA/L"}, {"measurement": "ImmunoCAP kUA/L", "setting": "[4]", "result": 0.25, "unit": "kUA/L"}]}, {"binder": "human IgE mAb 11F10 (antibody, V domains shown, human IgE from hybridoma) VH: EVQLVESGGGLVQPGRSLRLSCAASGFTFDDYTMHWVRQAPGKGLEWVSSIRWNSGNLDYADSVKGRFTISRDNARHSLYLQMNSLRAEDTALYYCVKDNGLRTLDFWGQGTLVTVSS VL: DIVMTQSPLSLPVTPGEPASISCRSSQSLLHRNGYNYLDWYLQKPGQSPQLLISLASNRASGVPDRFSGSGSGTDFTLKISRVEAEDVGVYYCMQALQTWTFGQGTKVELK", "values": [{"measurement": "binding result", "setting": "[5]", "result": "binds"}]}, {"binder": "human IgE mAb 21C10 (antibody, V domains shown, human IgE from hybridoma) VH: EVQLVESGGGLVKPGGSLRLSCAASGFILSRSSMSWVRQAPGKGLEWVSYISSTSSHIYYADSLKGRFTISRDNTENSVYLQMSSLRAEDTGVYYCARKTNGAWFLDLWGRGTLVTVSS VL: QSVLTQPPSVSGAPGQRVTISCTGSSSNIGAGSDVHWYQQFPGSAPHVLIYGNNQRPSGVPDRFSASKSGTSASLAITGLQADDEADYYCQSYDYDLSGSWVFGGGTKLTVL", "values": [{"measurement": "ImmunoCAP kUA/L", "setting": "[2]", "result": 0.83, "unit": "kUA/L"}, {"measurement": "ImmunoCAP kUA/L", "setting": "[3]", "result": 0.53, "unit": "kUA/L"}, {"measurement": "ImmunoCAP kUA/L", "setting": "[4]", "result": 0.32, "unit": "kUA/L"}, {"measurement": "binding result", "setting": "[1]", "result": "binds"}]}, {"binder": "human IgE mAb 15A7 (antibody, V domains shown, human IgE from hybridoma) VH: QVQLVQSGPEVRKPGASVKVSCKTSGYMFTDYEMNWVRQAPGQGLEWMGLINPHSGDTGYAQKFQGRVSMTSDTSTRTFYLELTGLTSEDTAVYYCARSQGTFEVYYFVSWGQGSLVTVSS VL: SYVLTQPPSVSVAPGKTASITCGAKNIATKRVHWYRQKPGQAPVVVVSDEEDRSSVIPERFSGSKSGDTATLEISRVEAGDEADYYCQVWDSLADQVVFGGGTKVTVL", "values": [{"measurement": "ImmunoCAP kUA/L", "setting": "[2]", "result": 0.14, "unit": "kUA/L"}]}, {"binder": "human IgE mAb 15C2 (antibody, V domains shown, human IgE from hybridoma) VH: QVQLVQSESELKKPGASVKISCKASGYDLTKYAMNWVRQAPGQGLEWMGWINTNTAKPTYAQGFTGRFVFSLDTSVRTIYLEISNLKAEDTAIYYCSRDGSGASWGQGTLVTVSS VL: DIQMTQSPSTLSASVGDRVTITCRASQNIGRWLAWHQQKPGKAPKVLITKASNLESGVPSRFTGSGSGTDFTLTITSLQPDDFATYYCQQYTTYSGTFGQGTRVEIK", "values": [{"measurement": "binding result", "setting": "[1]", "result": "binds"}]}, {"binder": "human IgE mAb 26A5 (antibody, V domains shown, human IgE from hybridoma) VH: QVQLVQSGSELRKPGASVKVSCKASGYTFTKYGMNWVRQAPGQGLEWMGWINTNTAKPTYAQDFTGRFVFSLDTSVNTAYLEISGLKAEDTAVYYCATDGSEGSWGQGTLVTVSS VL: DIQMTQSPSTLSASVGDRVTITCRASQSIGTWLAWHQQKPGTAPKVLIYKASNLKSGVPSRFSGSGSGTDFTLTISSLQPDDVATYYCQQYNTYSGTFGQGTRVEIK", "values": [{"measurement": "ImmunoCAP kUA/L", "setting": "[2]", "result": 0.25, "unit": "kUA/L"}, {"measurement": "ImmunoCAP kUA/L", "setting": "[3]", "result": 0.15, "unit": "kUA/L"}, {"measurement": "ImmunoCAP kUA/L", "setting": "[4]", "result": 0.14, "unit": "kUA/L"}]}, {"binder": "human IgE mAb 20G11 (antibody, V domains shown, human IgE from hybridoma) VH: QVQLVESGGGVVQPGGSLRLSCATSGFTFSSYGMHWVRQAPGKGLEWVAFIRYNGSNKYYADSVKGRFTISRDTSKNTLYLQMNSLRAEDSAVYYCAKDGDYDSWSGLTEHFQHWGQGTLVTVSS VL: not shown", "values": [{"measurement": "binding result", "setting": "[5]", "result": "binds"}]}, {"binder": "human IgE mAb 20M10 (antibody, V domains shown, human IgE from hybridoma) VH: EVQLVESGGGLVKPGGSLRLSCTVSGFTFNMHSMNWVRQAPGKGLEWVSFISSTSTYIYYPDSVKGRFTVSRDNSKNSLYLQMTSLRAEDTAVYYCVRRGRGGAARALDNWGQGTLVTVSS VL: SYVLPQTPSLSVAPGQTATISCGGNNTGSKSVHWYQQKPGQAPLLVVYDNSDRPSGIPERFSGSNSGNTATLTLSRVEAEDEADYYCQVWDSTIDHVIFGGGTKLTVL", "values": [{"measurement": "binding result", "setting": "[1]", "result": "binds"}]}, {"binder": "human IgE mAb 9A11 (antibody, V domains shown, human IgE from hybridoma) VH: EVQLVESGGGLVRPGGSLRLSCVASGFTFNTYWMHWVRQAPGKGLLWVSSLNKDGSSPTYADSVKGRFTISRDNTNNTLFLQLDSLRAEDTAVYYCVRDRRAVTTARYFDLWGRGTLVTVSS VL: DIVMTQSPESLAVSLGERATINCKSSSNIDNYLGWYQQRPGQPPKLLIYWASKRESGVPDRFSGSGSGTDFTLTIGRLQAEDVAVYYCQQYYTSPPVTFGGGTKVEIK", "values": [{"measurement": "binding result", "setting": "[1]", "result": "binds"}]}, {"binder": "human IgE mAb 3B10 (antibody, V domains shown, human IgE from hybridoma) VH: EVQLVESGGALVKPGGSLRLSCEGSGFMFSSAWLHWVRQAPGMGLELVGRMKSETDGGTLDYTAPVRGRFTISRDDSKNMFFLQMNSLKAEDTAVYYCVTGNFDYRSSPLGFWGQGALVTVSS VL: DIQMTQSPSTLSASAGDRVTITCRASENIYKWLAWYQQKPGKAPKLLIYKVSTLESGVPSRFSGSGFGTEFTLTISSLQPGDFATYYCQHYNSFPFTFGQGTKLEVK", "values": [{"measurement": "binding result", "setting": "[6]", "result": "binds"}]}, {"binder": "human IgE mAb 40C7 (antibody, V domains shown, human IgE from hybridoma) VH: EVQLVESGGDLVQPGGSLRLSCAASRFSFGSYAMSWVRQAPGKGLEWVSAISSSGGRAYYADSVKGRFTISRDNSRNTLYLQLNSLRGEDTAFYYCTKEGDTGSLWLFDSWGQGTLVTVSS VL: not shown", "values": [{"measurement": "binding result", "setting": "[6]", "result": "binds"}]}, {"binder": "human IgE mAb 4G4 (antibody, V domains shown, human IgE from hybridoma) VH: EVQLVQSGGGLVQPGGSLRLSCAASRFIFGSYAMSWVRQAPGKGLEWVSAISSSGGRTYYADSVKGRFTISRDNSRNTLYLQLSSLRAEDTAFYYCTKEGDTGSLWLFDSWGQGTLVTVSS VL: not shown", "values": [{"measurement": "ImmunoCAP kUA/L", "setting": "[2]", "result": 0.48, "unit": "kUA/L"}, {"measurement": "ImmunoCAP kUA/L", "setting": "[3]", "result": 0.34, "unit": "kUA/L"}, {"measurement": "ImmunoCAP kUA/L", "setting": "[4]", "result": 0.19, "unit": "kUA/L"}]}, {"binder": "human IgE mAb 3C3 (antibody, V domains shown, human IgE from hybridoma) VH: QLQLQESGPGLVKPSETLSLTCSISGASINSDDYYWGWIRQAPGEALEWIASIDASGTTFYNPSLRSRVTISVDTSTNQISLRLNSVTAADTAIYYCARRKTYYDFLTDYYNWYFDVWGRGTLVTVSS VL: QSALTQPRSVSGSPGQSVTFSCTGINSDIRDYDYVSWYQQHPGEAPKLIIYDVTKRASGVPSRFSGSKSGNTASLTISGLQAEDEADYYCCSYSVTYSFEVFGTGTQVSVL", "values": [{"measurement": "ImmunoCAP kUA/L", "setting": "[2]", "result": 3460, "unit": "kUA/L"}, {"measurement": "ImmunoCAP kUA/L", "setting": "[3]", "result": 0.51, "unit": "kUA/L"}, {"measurement": "ImmunoCAP kUA/L", "setting": "[4]", "result": 0.46, "unit": "kUA/L"}]}]}
